Assay [1] concerns the target T1, 表达在肿瘤细胞NALM-6表面的CD19 (UniProt P15391 20-556, limits assumed).
T1 construct: whole, on cells; also called CD19阳性细胞; NALM-6细胞
T1 sequence (looked up): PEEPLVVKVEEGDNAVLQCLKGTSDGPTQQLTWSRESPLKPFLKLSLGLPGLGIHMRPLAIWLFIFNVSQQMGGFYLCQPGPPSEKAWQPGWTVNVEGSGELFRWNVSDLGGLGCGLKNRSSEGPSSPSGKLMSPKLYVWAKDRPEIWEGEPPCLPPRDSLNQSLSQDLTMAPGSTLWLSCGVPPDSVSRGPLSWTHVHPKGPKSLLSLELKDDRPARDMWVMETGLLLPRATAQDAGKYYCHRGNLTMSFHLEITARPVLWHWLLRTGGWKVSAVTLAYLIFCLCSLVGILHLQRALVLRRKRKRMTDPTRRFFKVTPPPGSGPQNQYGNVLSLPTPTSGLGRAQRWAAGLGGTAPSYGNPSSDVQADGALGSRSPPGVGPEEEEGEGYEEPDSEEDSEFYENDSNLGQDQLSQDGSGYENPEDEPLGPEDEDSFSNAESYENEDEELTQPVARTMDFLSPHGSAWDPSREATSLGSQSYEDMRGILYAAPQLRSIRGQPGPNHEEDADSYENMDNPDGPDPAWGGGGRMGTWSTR
The assay can be described thus: flow cytometry of scFv on NALM-6 cells, PE goat anti-human secondary. For orientation: A flow cytometer gives signals particle by particle.

The target in assay [2] is T1, 表达在肿瘤细胞NALM-6表面的CD19. In words: flow cytometry on NALM-6 cells, FITC goat anti-mouse secondary.
In another assay the target is T2, CD19蛋白 (购自acro) (UniProt P15391 20-291).
T2 construct: also called 重组CD19蛋白 (ACRO, CD9-H52H2)
T2 sequence (looked up): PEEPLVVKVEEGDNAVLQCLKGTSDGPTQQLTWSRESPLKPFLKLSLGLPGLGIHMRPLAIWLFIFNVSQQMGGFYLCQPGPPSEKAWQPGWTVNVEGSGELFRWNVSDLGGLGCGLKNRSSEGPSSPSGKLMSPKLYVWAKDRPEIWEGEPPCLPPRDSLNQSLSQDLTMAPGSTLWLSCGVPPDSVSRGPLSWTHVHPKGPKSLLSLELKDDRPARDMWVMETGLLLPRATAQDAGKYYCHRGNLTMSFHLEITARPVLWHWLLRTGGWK
The assay can be described thus: ELISA, CD19 protein coated, antibody in twofold dilutions from 0.1mg/mL, OD450. (In general: In an ELISA, binding on a coated surface is turned into a signal by an enzyme label.)

The target of assay [3] is T3, CD19胞外区蛋白 (abcam, ab234966, 氨基酸序列编号第20位至291位) (UniProt P15391 20-291).
T3 construct: range 20-291; also called 变性的CD19重组蛋白; CD19重组蛋白
T3 sequence (looked up): T2 sequence (looked up)
In words: western blot on reduced, denatured CD19 extracellular domain, antibody at 20μg/mL. In general terms: Immunoblotting shows a protein as a band on a membrane.

Here are results for two molecules from patent CN111253487A (GUANGDONG HEC PHARMACEUTICAL, dated 2020).

B1: 10H10-1 scFv (单链抗体10H10-1) (scFv)
scFv: DIVMTQTPLSLPVSLGDQVSISCRSSQTLVYSNGDTYLEWYLQKPGQSPKLLIYKLSNRFSGVPDRFSGSGSGTDFTLKISRVESEDLGVYYCFQGSYFPFTFGAGTKLEIKGGGGSGGGGSGGGGSEVQLQQSGAELVRPGTSVKVSCKASGYAFTNYFIEWVIQRPGQGLEWIGVINPGNSNTNYNEKFKGKATLTADKSSSTAYMQLSSLTSDDSAVYFCARSGTTATTYAMDYWGQGTSVIVSS
notes: It was detected with PE-labelled goat anti-human antibody, and no tag or Fc is stated; also called CD19 scfv抗体 10H10-1
On to B1, for which the binding result with 表达在肿瘤细胞NALM-6表面的CD19 [1] is given as “binds”.

B2: 抗CD19鼠源抗体 10H10-1 (antibody, V domains shown)
VH: EVQLQQSGAELVRPGTSVKVSCKASGYAFTNYFIEWVIQRPGQGLEWIGVINPGNSNTNYNEKFKGKATLTADKSSSTAYMQLSSLTSDDSAVYFCARSGTTATTYAMDYWGQGTSVIVSS
VL: DIVMTQTPLSLPVSLGDQVSISCRSSQTLVYSNGDTYLEWYLQKPGQSPKLLIYKLSNRFSGVPDRFSGSGSGTDFTLKISRVESEDLGVYYCFQGSYFPFTFGAGTKLEIK
notes: Murine anti-CD19 antibody from a hybridoma
For the molecule B2, the binding result (in the assay with 表达在肿瘤细胞NALM-6表面的CD19 [2]; in the assay with CD19蛋白 (购自acro); in assay [3]) was “binds” each time.
